Results as given in article PMC8902617, “A lysine-rich cluster in the N-BAR domain of ARF GTPase-activating protein ASAP1 is necessary for binding and bundling actin filaments” (The Journal of Biological Chemistry, 2022).

These binders were tested against filamentous actin (rabbit skeletal muscle actin) (rabbit, UniProt P68135 1-377) (assay: co-sedimentation; high-speed actin cosedimentation: test protein (2 μM) with F-actin (0-25 μM) in F-actin buffer (5 mM Hepes pH 8.0, 100 mM KCl, 2 mM MgCl2, 0.2 mM CaCl2, 1 mM ATP, 1 mM DTT) for 30 min, 150,000g for 90 min at 24 °C and/or 4 °C; supernatant and pellet on SDS-PAGE, % test protein in the pellet (ACAP1 also by anti-His6 immunoblot)). Conditions: both partners purified.

Row | Binder | EC50 [nM] | binding result
1 | ASAP3 BAR-PH (aa 1-394) (domain or fragment, ASAP3, BAR-PH tandem, residues 1-394; source: E. coli LOBSTR (DE3) RIL or BL21 (DE3), purified (Ni-NTA or HisTrap; buffer exchange or Sephacryl S100)) MPEQFSVAEFLAVTAEDLSSPAGAAAFAAKMPRYRGAALAREEILEGDQAILQRIKKAVRAIHSSGLGHVENEEQYREAVESLGNSHLSQNSHELSTGFLNLAVFTREVAALFKNLIQNLNNIVSFPLDSLMKGQLRDGRQDSKKQLEKAWKDYEAKMAKLEKERDRARVTGGIPGEVAQDMQRERRIFQLHMCEYLLKAGESQMKQGPDFLQSLIKFFHAQHNFFQDGWKAAQSLFPFIEKLAASVHALHQAQEDELQKLTQLRDSLRGTLQLESREEHLSRKNSGCGYSIHQHQGNKQFGTEKVGFLYKKSDGIRRVWQKRKCGVKYGCLTISHSTINRPPVKLTLLTCQVRPNPEEKKCFDLVTHNRTYHFQAEDEHECEAWVSVLQNSKD | ~1000 | –
2 | ASAP1 BAR-PH (residues 1-431), His6-tagged, wild type (domain or fragment, ASAP1, BAR-PH tandem, residues 1-431; also called ASAP1-BAR-PH-His6; WT BAR-PH; source: E. coli LOBSTR (DE3) RIL or BL21 (DE3), purified (Ni-NTA or HisTrap; buffer exchange or Sephacryl S100)) not shown | ~1000 | –
3 | [K283A, K284A] ASAP1-BAR-PH-His6 (domain or fragment, ASAP1, BAR-PH tandem, residues 1-431; Mutant of m2; source: E. coli LOBSTR (DE3) RIL or BL21 (DE3), purified (Ni-NTA or HisTrap; buffer exchange or Sephacryl S100)) not shown | – | binds
4 | [Q72E, Y82F, N83D] ASAP1-BAR-PH-His6 (domain or fragment, ASAP1, BAR-PH tandem, residues 1-431; Mutant of m2; source: E. coli LOBSTR (DE3) RIL or BL21 (DE3), purified (Ni-NTA or HisTrap; buffer exchange or Sephacryl S100)) not shown | – | binds
5 | [K229A, K231A, K232A] ASAP1-BAR-PH-His6 (domain or fragment, ASAP1, BAR-PH tandem, residues 1-431; Mutant of m2; source: E. coli LOBSTR (DE3) RIL or BL21 (DE3), purified (Ni-NTA or HisTrap; buffer exchange or Sephacryl S100)) not shown | – | binds
6 | [Q72A, Y82A, N83A] ASAP1-BAR-PH-His6 (domain or fragment, ASAP1, BAR-PH tandem, residues 1-431; Mutant of m2; the text prints [Q72A, Y82A, N83A] throughout; also called cluster 1b Ala triple mutant; source: E. coli LOBSTR (DE3) RIL or BL21 (DE3), purified (Ni-NTA or HisTrap; buffer exchange or Sephacryl S100)) not shown | – | binds
7 | [K283E, K284E] ASAP1-BAR-PH-His6 (domain or fragment, ASAP1, BAR-PH tandem, residues 1-431; Mutant of m2; source: E. coli LOBSTR (DE3) RIL or BL21 (DE3), purified (Ni-NTA or HisTrap; buffer exchange or Sephacryl S100)) not shown | – | binds
8 | Q72E ASAP1-BAR-PH-His6 single mutant (domain or fragment, ASAP1, BAR-PH tandem, residues 1-431; Mutant of m2; source: E. coli LOBSTR (DE3) RIL or BL21 (DE3), purified (Ni-NTA or HisTrap; buffer exchange or Sephacryl S100)) not shown | – | binds
9 | ASAP2 BAR-PH (aa 1-397) (domain or fragment, ASAP2, BAR-PH tandem, residues 1-397; source: E. coli LOBSTR (DE3) RIL or BL21 (DE3), purified (Ni-NTA or HisTrap; buffer exchange or Sephacryl S100)) not shown | ~4000 | –
